For the assay, the target named is Spt6-YW with a C-terminal 3XFLAG epitope tag (S. cerevisiae) (UniProt P23615). Put plainly: co-IP.

This note sets out measurements from publication doi:10.1101/2022.04.27.489770.

UniProt P23615, sequence (P23615 whole entry): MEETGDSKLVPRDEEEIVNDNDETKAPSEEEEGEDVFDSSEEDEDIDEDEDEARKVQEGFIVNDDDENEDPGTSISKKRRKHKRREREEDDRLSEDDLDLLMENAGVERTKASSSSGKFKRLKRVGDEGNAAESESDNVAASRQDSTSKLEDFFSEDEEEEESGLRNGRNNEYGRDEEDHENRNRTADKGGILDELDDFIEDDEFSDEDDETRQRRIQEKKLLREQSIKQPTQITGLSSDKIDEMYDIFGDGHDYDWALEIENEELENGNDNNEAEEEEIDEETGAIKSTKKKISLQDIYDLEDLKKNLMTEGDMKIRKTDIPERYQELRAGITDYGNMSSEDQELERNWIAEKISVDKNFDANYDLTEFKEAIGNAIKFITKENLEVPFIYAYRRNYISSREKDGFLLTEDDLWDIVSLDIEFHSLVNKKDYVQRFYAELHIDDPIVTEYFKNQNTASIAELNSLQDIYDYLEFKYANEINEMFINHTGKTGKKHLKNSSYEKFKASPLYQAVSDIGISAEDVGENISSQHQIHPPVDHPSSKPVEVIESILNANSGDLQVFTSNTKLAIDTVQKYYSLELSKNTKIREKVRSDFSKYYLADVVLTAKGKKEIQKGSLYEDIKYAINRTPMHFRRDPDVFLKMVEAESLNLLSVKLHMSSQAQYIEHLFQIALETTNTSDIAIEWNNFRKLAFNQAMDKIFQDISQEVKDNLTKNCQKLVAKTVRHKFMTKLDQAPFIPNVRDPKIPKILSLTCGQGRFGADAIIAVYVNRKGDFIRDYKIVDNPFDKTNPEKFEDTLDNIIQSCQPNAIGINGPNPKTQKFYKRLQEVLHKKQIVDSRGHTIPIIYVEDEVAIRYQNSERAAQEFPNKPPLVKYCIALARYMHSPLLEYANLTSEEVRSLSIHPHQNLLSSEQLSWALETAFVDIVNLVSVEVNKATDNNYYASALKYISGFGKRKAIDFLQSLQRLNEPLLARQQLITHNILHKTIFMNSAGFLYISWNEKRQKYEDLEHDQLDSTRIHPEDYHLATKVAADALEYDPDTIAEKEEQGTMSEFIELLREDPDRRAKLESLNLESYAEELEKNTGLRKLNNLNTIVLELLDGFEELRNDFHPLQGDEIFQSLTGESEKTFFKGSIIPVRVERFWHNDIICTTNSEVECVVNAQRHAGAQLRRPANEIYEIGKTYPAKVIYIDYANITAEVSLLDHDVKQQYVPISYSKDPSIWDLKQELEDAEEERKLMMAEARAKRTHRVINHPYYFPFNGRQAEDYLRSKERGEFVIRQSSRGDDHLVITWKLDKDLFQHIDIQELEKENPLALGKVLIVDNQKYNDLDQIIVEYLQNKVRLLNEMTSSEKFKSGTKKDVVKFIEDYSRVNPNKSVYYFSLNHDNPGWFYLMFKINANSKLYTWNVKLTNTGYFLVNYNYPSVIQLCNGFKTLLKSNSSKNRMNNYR

B1: Mcm4-V5 (natural protein)
chain: MSQQSSSPTKEDNNSSSPVVPNPDSVPPQLSSPALFYSSSSSQGDIYGRNNSQNLSQGEGNIRAAIGSSPLNFPSSSQRQNSDVFQSQGRQGRIRSSASASGRSRYHSDLRSDRALPTSSSSLGRNGQNRVHMRRNDIHTSDLSSPRRIVDFDTRSGVNTLDTSSSSAPPSEASEPLRIIWGTNVSIQECTTNFRNFLMSFKYKFRKILDEREEFINNTTDEELYYIKQLNEMRELGTSNLNLDARNLLAYKQTEDLYHQLLNYPQEVISIMDQTIKDCMVSLIVDNNLDYDLDEIETKFYKVRPYNVGSCKGMRELNPNDIDKLINLKGLVLRSTPVIPDMKVAFFKCNVCDHTMAVEIDRGVIQEPARCERIDCNEPNSMSLIHNRCSFADKQVIKLQETPDFVPDGQTPHSISLCVYDELVDSCRAGDRIEVTGTFRSIPIRANSRQRVLKSLYKTYVDVVHVKKVSDKRLDVDTSTIEQELMQNKVDHNEVEEVRQITDQDLAKIREVAAREDLYSLLARSIAPSIYELEDVKKGILLQLFGGTNKTFTKGGRYRGDINILLCGDPSTSKSQILQYVHKITPRGVYTSGKGSSAVGLTAYITRDVDTKQLVLESGALVLSDGGVCCIDEFDKMSDSTRSVLHEVMEQQTISIAKAGIITTLNARSSILASANPIGSRYNPNLPVTENIDLPPPLLSRFDLVYLVLDKVDEKNDRELAKHLTNLYLEDKPEHISQDDVLPVEFLTMYISYAKEHIHPIITEAAKTELVRAYVGMRKMGDDSRSDEKRITATTRQLESMIRLAEAHAKMKLKNVVELEDVQEAVRLIRSAIKDYATDPKTGKIDMNLVQTGKSVIQRKLQEDLSREIMNVLKDQASDSMSFNELIKQINEHSQDRVESSDIQEALSRLQQEDKVIVLGEGVRRSVRLNNRV
Regarding B1, the fold reduction of co-immunoprecipitation against wild-type Spt6 was found to be 2 fold.
